Results taken from patent JP2004000045A (dated 2004).
Blank lines part the entries; values can stand above or below the binder they belong to.

Columns and labels:
ヒト前立腺特異的膜抗原(PSMA) [1] = target: T1, ヒト前立腺特異的膜抗原(PSMA) (human, UniProt Q04609 1-750); assay: flow cytometry, 10 μg/mL, Namalwa KJM-1 cells transfected with PSMA cDNA (pAMoPSMA)
T1 construct: whole, on cells; also called PSMA; ヒトPSMA

ヒト前立腺特異的膜抗原(PSMA) [2] = target: T1, ヒト前立腺特異的膜抗原(PSMA); assay: flow cytometry, 10 μg/mL, LNCaP cells

T1 sequence (Q04609 whole entry): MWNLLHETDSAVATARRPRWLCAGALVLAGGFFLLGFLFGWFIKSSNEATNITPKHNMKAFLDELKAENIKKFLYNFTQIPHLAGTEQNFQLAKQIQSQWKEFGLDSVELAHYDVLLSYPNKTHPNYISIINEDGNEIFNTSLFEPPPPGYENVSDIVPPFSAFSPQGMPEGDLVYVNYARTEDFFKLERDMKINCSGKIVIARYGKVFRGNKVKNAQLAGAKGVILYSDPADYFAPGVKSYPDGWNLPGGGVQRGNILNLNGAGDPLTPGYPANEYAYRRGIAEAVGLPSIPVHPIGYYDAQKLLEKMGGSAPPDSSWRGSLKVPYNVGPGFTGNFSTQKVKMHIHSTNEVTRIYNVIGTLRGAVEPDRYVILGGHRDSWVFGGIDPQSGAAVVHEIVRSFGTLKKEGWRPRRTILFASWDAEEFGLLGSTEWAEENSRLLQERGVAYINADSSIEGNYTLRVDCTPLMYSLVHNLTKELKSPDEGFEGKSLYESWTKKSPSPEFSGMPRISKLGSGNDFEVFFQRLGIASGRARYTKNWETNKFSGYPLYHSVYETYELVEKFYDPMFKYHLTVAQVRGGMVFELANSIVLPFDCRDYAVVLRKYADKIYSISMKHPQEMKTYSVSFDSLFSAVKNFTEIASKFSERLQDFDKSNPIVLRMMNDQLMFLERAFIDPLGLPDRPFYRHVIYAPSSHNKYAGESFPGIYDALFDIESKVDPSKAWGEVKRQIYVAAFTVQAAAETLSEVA

binding result (ヒト前立腺特異的膜抗原(PSMA) [1]): binds
B1: 抗PSMAマウス抗体2C9 (antibody, V domains shown)
VH: DVHLQESGPGLVKPSQSLSLTCTVTGYSITSDYAWNWIRQFPGNKLEWMGYISFSGSTSYNPSLKSRISVTRDTSKNQFFLQLNSVTTEDTATYYCARWNYYGSSHVWFAYWGQGTLVTVSA
VL: DIKMTQSPSSMYASLGERVTITCKASQDIYSYLIWFQQKPGKSPKTLIYRANRLVDGVPSRFSGSGSGQDYSLTISSLEYEDMGIYYCLQYDEFATFGSGTKLEMKR
notes: Whole mouse antibody from hybridoma; also called マウスモノクローナル抗体2C9; 2C9

binding result (ヒト前立腺特異的膜抗原(PSMA) [2]): binds
B2: アドリアマイシン結合抗PSMAキメラ抗体ADM−KM2777 (antibody, human IgG1, V domains shown)
VH: B1 VH
VL: B1 VL
modifications: as for the heavy chain: linker on amino groups, sites not stated; adriamycin-(Gly-Pro)-PEG linker (PEG average MW about 2,000) coupled through NHS ester to amino groups of the antibody; on average 2.5 ADM per antibody molecule; sites not stated
notes: also called ADM-KM2777

binding result (ヒト前立腺特異的膜抗原(PSMA) [2]): binds
B3: 抗PSMAキメラ抗体KM2777 (antibody, human IgG1, V domains shown)
VH: B1 VH
VL: B1 VL
notes: Human-type chimeric antibody: 2C9 VH joined to human IgG1 CH and 2C9 VL joined to human kappa CL (vector pKANTEX93), produced in YB2/0 cells; also called KM2777; 抗PSMAヒト型キメラ抗体
